From article PMC6497303, “Molecular understanding of calcium permeation through the open Orai channel” (PLoS Biology, 2019) come the findings set out here.

The series concerns the molecule itself. Description: crystal structure; purified dOrai-P288L in NG/NM detergent with POPC:POPE:POPG lipid, sitting drop, 17°C, sodium citrate pH 6.5, PEG400; 4.5 Å; 2 hexamers in each asymmetric unit.

B1: Drosophila melanogaster Orai (dOrai) mutant (P288L) channel, amino acids 132 to 341 with C224S, C283T and P288L (domain or fragment, UniProt Q9U6B8 132-341, looked up)
chain: SMSQSGEDLHSPTYLSWRKLQLSRAKLKASSKTSALLSGFAMVAMVEVQLDHDTNVPPGMLIAFAICTTLLVAVHMLALMISTCILPNIETVSNLHSISLVHESPHERLHWYIETAWAFSTLLGLILFLLEIAILCWVKFYDLSPPAAWSATVVLILVMIIFMAFAIHFYRSLVSHKYEVTVSGIRELEMLKEQMEQDHLEHHNNIRNNG
notes: Orai, Drosophila melanogaster, UniProt Q9U6B8, residues 132 to 341 with C224S, C283T and P288L; codons optimised for Homo sapiens; PreScission site between Orai and eGFP; residues of the site may be left after 3C cleavage; also called dOrai-P288L; dOrai-P288L channel; not shown: eGFP, C-terminal, cleaved
Turning to B1, the “stoichiometry N” value is 6.
